Test [1] has as its target wild-type EGFR kinase domain (residues 672-998 of human EGFR) with N-terminal 6-His tag, linker and TEV site (human) (UniProt P00533). Put plainly: cell-based or functional assay.
The target of test [2] is EGFR kinase domain L834R mutant (human) (UniProt P00533). Nature of the test: cell-based or functional assay.
The target in test [3] is EGFR kinase domain I682Q mutant with N-terminal His tag and linker (human) (UniProt P00533). Nature of the test: anisotropy.

30-residue fluorescein-labelled MIG6 peptide (residues 334-363), sequence (Q9UJM3 334-363): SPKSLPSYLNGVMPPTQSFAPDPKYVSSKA

In turn, “40-residue MIG6 peptide (residues 325-364) (from UniProt Q9UJM3 325-364)” came in with an IC50, inhibition of activated EGFR kinase in test [1] of 10 µM. “MIG6(segments 1-2) peptide (residues 336-412) bearing Y358A (from UniProt Q9UJM3 336-412)” had an IC50, inhibition of kinase activity in solution in test [2] of 5 µM.

As to “30-residue fluorescein-labelled MIG6 peptide (residues 334-363) (from UniProt Q9UJM3 334-363)”, the Kd in test [3] stood at 18.3 µM. This lies in the double-digit micromolar range. In test [2], “MIG6(segments 1-2) peptide (residues 336-412) (from UniProt Q9UJM3 336-412)” gave an IC50, inhibition of kinase activity in solution of 0.2 µM.

(Values after patent US20100323957A1, “NOVEL ASSAY FOR INHIBITORS OF EGFR” (THE REGENTS OF THE UNIVERSITY OF CALIFORNIA THE OFFICE OF …, priority 2007, published 2010).)
